The text below walks through data of US11535824B2, “Nuclear transfer” (Sung Kwang Medical Foundation, priority 2015, dated 2022).

The test system of one assay is cancer models. To be noted: variety of in vitro and in vivo cancer models; cited from earlier work.
Assay [1] has as its system primary human fibroblasts. To be noted: without MYC or KLF4; cited from earlier work.
A further assay concerns H4R3. To be noted: cited from earlier work.
For another assay, the system named is SCNT-generated embryos. To be noted: cited from earlier work.
Another assay concerns adult stem cells. The conditions noted are these: cited from earlier work.
Assay [2] deals with mouse embryos obtained from SCNT. The assay can be described thus: CPP-CARM1 protein treatment of 8-cell SCNT embryos; development to blastocyst. The conditions noted are these: for % of developed to BLs: calculated from 2 cell cleavaged embryos. The assay is classed as cell-based. The protocol: The above preliminary results were extended in further studies utilizing protein treatment. SCNT oocytes were cultured with protein of CARM1 on third day after formation of fertilized embryo to investigate the influence on the development rate into blastocyst. Specifically, mouse embryos obtained from SCNT were cultured to 8-cell stage in embryo culture medium (potassium simplex-optimized medium, KSOM; Millipore, Danvers, Mass.) containing 10% SPS (Sage, Trumbull, Conn.). And then, 8-cell embryos were cultured at 37° C. and 5% CO2 for 48 h in embryo culture medium with 2 μg/ml CPP-CARM1 recombinant protein or DsRed protein (control—non-functional protein) under mineral oil (Sage). Embryonic development was monitored for a further 2 days. CARM1 or DsRed cDNA was inserted into a pET vector to construct an expression plasmid for CARM1 conjugated to 7× arginine (a cell-penetrating peptide (CPP) domain) and a 6×His-tag. The CPP-CARM1 protein expression vector was transformed into BL21 (DE3) pLysS-competent cells (Stratagene Inc., La Jolla, Calif.). Transformed cells were cultured and induced by 1 mM isopropyl-1-thio-β-D-galactopyranoside (IPTG) for 8 h at 20° C. to produce the CPP-CARM1 or DsRed proteins.

With `CC(C)N(C[C@H]1O[C@@H](n2cnc3c(N)ncnc32)[C@H](O)[C@@H]1O)[C@H]1C[C@@H](CCc2nc3cc(C(C)(C)C)ccc3[nH]2)C1` [EPZ5676], in the assay on cancer models, the anticancer chemotherapeutic activity entry was “exhibit anticancer chemotherapeutic activity”.

Turning to `Cc1cc(C)c(CNC(=O)c2cc(-c3ccc(CN4CCOCC4)cc3)cc3c2cnn3C2CCCC2)c(=O)[nH]1` [EPZ005687], in the assay on cancer models, the anticancer chemotherapeutic activity entry is “exhibit anticancer chemotherapeutic activity”.

`CC[C@H](C)n1cc(C)c2c(C(=O)NCc3c(C)cc(C)[nH]c3=O)cc(-c3ccc(N4CCNCC4)nc3)cc21` [GSK126]: in the assay with cancer models, the anticancer chemotherapeutic activity entry is on record as “exhibit anticancer chemotherapeutic activity”.

For `CCCC(CCC)C(=O)O` [Valproic acid], in assay [1], the “reprogramming with two factors, OCT4 and SOX2” value is given as “enables the reprogramming”.

For `Nc1ccc(S(=O)(=O)c2ccc(NCN3C(=O)NC(=O)C(=O)C3=O)cc2)cc1` [allantodapsone], the “methylation at H4R3” value in the assay with H4R3 is given as “hypomethylation”.

`CC(/C=C/C(=O)NO)=C\[C@@H](C)C(=O)c1ccc(N(C)C)cc1` [trichostatin A]: in the assay with SCNT-generated embryos (SCNT-generated embryos), the “chromosome decondensation and nuclear volume” value was “increase”. For the same molecule, in the assay with SCNT-generated embryos (additive in nuclear transfer), the cloning efficiency entry is “improve cloning efficiency”.

B1: coactivator-associated arginine methyltransferase 1 (protein, UniProt Q86X55 2-608, looked up)
Histone-arginine …: AAAAAAVGPGAGGAGSAVPGGAGPCATVSVFPGARLLTIGDANGEIQRHAEQQALRLEVRAGPDSAGIALYSHEDVCVFKCSVSRETECSRVGKQSFIITLGCNSVLIQFATPNDFCSFYNILKTCRGHTLERSVFSERTEESSAVQYFQFYGYLSQQQNMMQDYVRTGTYQRAILQNHTDFKDKIVLDVGCGSGILSFFAAQAGARKIYAVEASTMAQHAEVLVKSNNLTDRIVVIPGKVEEVSLPEQVDIIISEPMGYMLFNERMLESYLHAKKYLKPSGNMFPTIGDVHLAPFTDEQLYMEQFTKANFWYQPSFHGVDLSALRGAAVDEYFRQPVVDTFDIRILMAKSVKYTVNFLEAKEGDLHRIEIPFKFHMLHSGLVHGLAFWFDVAFIGSIMTVWLSTAPTEPLTHWYQVRCLFQSPLFAKAGDTLSGTCLLIANKRQSYDISIVAQVDQTGSKSSNLLDLKNPFFRYTGTTPSPPPGSHYTSPSENMWNTGSTYNLSSGMAVAGMPTAYDLSSVIASGSSVGHNNLIPLANTGIVNHTHSRMGSIMSTGIVQGSSGAQGSGGGSTSAHYAVNSQFTMGGPAISMASPMSIPTNTMHYGS
notes: member of the protein arginine methyltransferase (PRMT) family
On to B1, for which the “expression of Oct-4, Sox-2 and nanog” value in the assay with adult stem cells was “upregulated”. Also, the “No. of developed to BLs” value in assay [2] (Total of three experiments) was 26; in assay [2] (experiment 1, treatment D 3, cumulus donor cell, KSOM), 12; in assay [2] (experiment 2, treatment D 3, cumulus donor cell, KSOM), 10; in assay [2] (experiment 3, treatment D 3, cumulus donor cell, KSOM), 4. Moreover, the “% of developed to BLs” value was “(38.2) %” in assay [2] (Total of three experiments), “(46.2) %” in assay [2] (experiment 1), “(40) %” in assay [2] (experiment 2) and “(23.5) %” in assay [2] (experiment 3).
